Measurements: patent US20240010722A1 (published 2024)

T1: human MAdCAM (human, UniProt Q13477 19-317, limits assumed)
T1 construct: also called huMAdCAM; human MAdCAM-1
T1 sequence (looked up): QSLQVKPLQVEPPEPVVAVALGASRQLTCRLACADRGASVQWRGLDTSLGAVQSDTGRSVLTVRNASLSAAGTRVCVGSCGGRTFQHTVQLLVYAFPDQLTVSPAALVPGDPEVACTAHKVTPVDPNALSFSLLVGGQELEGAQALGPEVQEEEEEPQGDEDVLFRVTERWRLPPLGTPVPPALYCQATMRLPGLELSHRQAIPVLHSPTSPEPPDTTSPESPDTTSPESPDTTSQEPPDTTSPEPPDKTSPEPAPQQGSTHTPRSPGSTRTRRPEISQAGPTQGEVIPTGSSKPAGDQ

T2: mouse MAdCAM (mouse, UniProt Q61826 22-365, limits assumed)
T2 construct: also called mouse MAdCAM-1; muMAdCAM
T2 sequence (looked up): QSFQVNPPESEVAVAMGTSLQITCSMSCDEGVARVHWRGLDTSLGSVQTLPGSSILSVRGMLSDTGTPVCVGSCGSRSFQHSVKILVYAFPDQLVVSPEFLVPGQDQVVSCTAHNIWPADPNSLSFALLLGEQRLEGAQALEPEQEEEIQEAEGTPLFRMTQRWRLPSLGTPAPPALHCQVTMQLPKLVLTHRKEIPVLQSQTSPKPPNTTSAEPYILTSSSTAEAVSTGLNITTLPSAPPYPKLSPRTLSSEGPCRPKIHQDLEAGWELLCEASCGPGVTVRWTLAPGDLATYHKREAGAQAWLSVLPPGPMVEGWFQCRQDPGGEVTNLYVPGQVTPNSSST

B1: MIAB133 (antibody, V domains shown)
VH: EVQLLESGGGLVQPGGSLRLSCAASGFTFSSFWMHWVRQAPGKGLEWISYISGDSGYTNYADSVKGRFTISRDNSKNTLYLQMNSLRAEDTAVYYCARDRPYYYYMDVWGKGTTVTVSS
VL: DIQMTQSPSSLSASVGDRVTITCRASQSVSRSLAWYQQKPGKAPKLLIYAASSLQSGVPSRFSGSGSGTDFTLTISSLQPEDFATYYCQQYKSYPVTFGQGTKVEIK
notes: tested with human Fc; also called MIAB133-001
B2: MIAB136 (antibody, V domains shown)
VH: EVQLLESGGGLVQPGGSLRLSCAASGFTFSSYAMSWVRQAPGKGLEWISYISGDSGYTNYADSVKGRFTISRDNSKNTLYLQMNSLRAEDTAVYYCARDRPYYYYMDVWGKGTTVTVSS
VL: DIQMTQSPSSLSASVGDRVTITCRASQSVSRSLAWYQQKPGKAPKLLIYAASSLQSGVPSRFSGSGSGTDFTLTISSLQPEDFATYYCQQYKSYPVTFGQGTKVEIK
notes: tested with human Fc
B3: MIAB137 (antibody, V domains shown)
VH: EVQLLESGGGLVQPGGSLRLSCAASGFTFSDFWMHWVRQAPGKGLEWVSAISGSGGSTYYADSVKGRFTISRDNSKNTLYLQMNSLRAEDTAVYYCARDRPYYYYMDVWGKGTTVTVSS
VL: DIQMTQSPSSLSASVGDRVTITCRASQSVSRSLAWYQQKPGKAPKLLIYAASSLQSGVPSRFSGSGSGTDFTLTISSLQPEDFATYYCQQYKSYPVTFGQGTKVEIK
notes: tested with human Fc
B4: MIAB145 (antibody, V domains shown)
VH: EVQLLESGGGLVQPGGSLRLSCAASGFTFSDFWMHWVRQAPGKGLEWISYISGDSGYTNYADSVKGRFTISRDNSKNTLYLQMNSLRAEDTAVYYCARDRPYYYYMDVWGKGTTVTVSS
VL: DIQMTQSPSSLSASVGDRVTITCRASQSISRSLAWYQQKPGKAPKLLIYAASSLQSGVPSRFSGSGSGTDFTLTISSLQPEDFATYYCQQYKSYPVTFGQGTKVEIK
notes: tested with human Fc; also called MIAB145-001
B5: MIAB146 (antibody, V domains shown)
VH: EVQLLESGGGLVQPGGSLRLSCAASGFTFSDFWMHWVRQAPGKGLEWISYISGDSGYTNYADSVKGRFTISRDNSKNTLYLQMNSLRAEDTAVYYCARDRPYYYYMDVWGKGTTVTVSS
VL: DIQMTQSPSSLSASVGDRVTITCRASQSVSSSLAWYQQKPGKAPKLLIYAASSLQSGVPSRFSGSGSGTDFTLTISSLQPEDFATYYCQQYKSYPVTFGQGTKVEIK
notes: tested with human Fc; also called MIAB146-001
B6: MIAB147 (antibody, V domains shown)
VH: EVQLLESGGGLVQPGGSLRLSCAASGFTFSDFWMHWVRQAPGKGLEWISYISGDSGYTNYADSVKGRFTISRDNSKNTLYLQMNSLRAEDTAVYYCARDRPYYYYMDVWGKGTTVTVSS
VL: DIQMTQSPSSLSASVGDRVTITCRASQSVSRYLAWYQQKPGKAPKLLIYAASSLQSGVPSRFSGSGSGTDFTLTISSLQPEDFATYYCQQYKSYPVTFGQGTKVEIK
notes: tested with human Fc; also called MIAB147-001
B7: MIAB148 (antibody, V domains shown)
VH: EVQLLESGGGLVQPGGSLRLSCAASGFTFSDFWMHWVRQAPGKGLEWISYISGDSGYTNYADSVKGRFTISRDNSKNTLYLQMNSLRAEDTAVYYCARDRPYYYYMDVWGKGTTVTVSS
VL: DIQMTQSPSSLSASVGDRVTITCRASQSVSRSLNWYQQKPGKAPKLLIYAASSLQSGVPSRFSGSGSGTDFTLTISSLQPEDFATYYCQQYKSYPVTFGQGTKVEIK
notes: tested with human Fc
B8: MIAB149 (antibody, V domains shown)
VH: EVQLLESGGGLVQPGGSLRLSCAASGFTFSDFWMHWVRQAPGKGLEWISYISGDSGYTNYADSVKGRFTISRDNSKNTLYLQMNSLRAEDTAVYYCARDRPYYYYMDVWGKGTTVTVSS
VL: DIQMTQSPSSLSASVGDRVTITCRASQSISSSLAWYQQKPGKAPKLLIYAASSLQSGVPSRFSGSGSGTDFTLTISSLQPEDFATYYCQQYKSYPVTFGQGTKVEIK
notes: tested with human Fc; also called MIAB149-001
B9: MIAB208 (antibody, V domains shown)
VH: EVQLLESGGGLVQPGGSLRLSCAASGFTFDDYAMHWVRQAPGKGLEWVASITSSSAFIDYADSVKGRFTISRDNSKNTLYLQMNSLRAEDTAVYYCARERVDWNSYFDLWGQGTLVTVSS
VL: EIVMTQSPATLSVSPGERATLSCRASQSVYSNLAWYQQKPGQAPRLLIYDASTRATGIPARFSGSGSGTEFTLTISSLQSEDFAVYYCQQYHIWPPTFGQGTKVEIK
notes: tested with human Fc
B10: MIAB26 (antibody, V domains shown)
VH: EVQLLESGGGLVQPGGSLRLSCAASGFTFDDYAMHWVRQAPGKGLEWVASITSSSAFIDYADSVKGRFTISRDNSKNTLYLQMNSLRAEDTAVYYCARERVDWNSYFDLWGQGTLVTVSS
VL: EIVMTQSPATLSVSPGERATLSCRASQSVYSNLAWYQQKPGQAPRLLIYRASTRATGIPARFSGSGSGTEFTLTISSLQSEDFAVYYCQQYHIWPPTFGQGTKVEIK
notes: tested with human Fc
B11: MIAB121 (antibody, V domains shown)
VH: EVQLLESGGGLVQPGGSLRLSCAASGFIFDDYAMHWVRQAPGKGLEWVASITSSSAFIDYADSVKGRFTISRDNSKNTLYLQMNSLRAEDTAVYYCARERVDWFSYFDLWGQGTLVTVSS
VL: EIVMTQSPATLSVSPGERATLSCRACPSVSNNLVWYQQKPGQAPRLLIYDASTRATGIPARFSGSGSGTEFTLTISSLQSEDFAVYYCQQYSHWPPTFGQGTKVEIK
notes: tested with human Fc
B12: MIAB205 (antibody, V domains shown)
VH: EVQLLESGGGLVQPGGSLRLSCAASGFTFDDYAMHWVRQAPGKGLEWVASITSSSAFIDYADSVKGRFTISRDNSKNTLYLQMNSLRAEDTAVYYCARERVDWFSYFDLWGQGTLVTVSS
VL: EIVMTQSPATLSVSPGERATLSCRASQSVYSNLAWYQQKPGQAPRLLIYRASTRATGIPARFSGSGSGTEFTLTISSLQSEDFAVYYCQQYHIWPPTFGQGTKVEIK
notes: tested with human Fc
B13: MIAB206 (antibody, V domains shown)
VH: EVQLLESGGGLVQPGGSLRLSCAASGFTFDDYAMHWVRQAPGKGLEWVASITSSSAFIDYADSVKGRFTISRDNSKNTLYLQMNSLRAEDTAVYYCARERVDWYSYFDLWGQGTLVTVSS
VL: EIVMTQSPATLSVSPGERATLSCRASQSVYSNLAWYQQKPGQAPRLLIYRASTRATGIPARFSGSGSGTEFTLTISSLQSEDFAVYYCQQYHIWPPTFGQGTKVEIK
notes: tested with human Fc
B14: MIAB207 (antibody, V domains shown)
VH: EVQLLESGGGLVQPGGSLRLSCAASGFTFDDYAMHWVRQAPGKGLEWVASITSSSAFIDYADSVKGRFTISRDNSKNTLYLQMNSLRAEDTAVYYCARERVDWNSYFDLWGQGTLVTVSS
VL: EIVMTQSPATLSVSPGERATLSCRASQSVYSNLVWYQQKPGQAPRLLIYRASTRATGIPARFSGSGSGTEFTLTISSLQSEDFAVYYCQQYHIWPPTFGQGTKVEIK
notes: tested with human Fc

What was measured:
[1] = target: T1, human MAdCAM; assay: BLI (Octet), binder on anti-human Fc tips
[2] = target: Insulin; assay: polyreactivity ELISA on insulin coat, 100 nM
Method: Non-specific DNA and Insulin binding is predictive of poor pharmacokinetics (PK). An immunosorbent plate was coated with dsDNA at a concentration of 1 μg/mL or Insulin at 5 μg/mL in PBS pH 7.4, 75 ul/well, and incubated overnight at 4° C. Wells were washed with PBS pH 7.4 containing 0.05% Tween-20 (wash buffer) three times, and then blocked with 200 ul/well 1% BSA in PBS pH 7.4 (block buffer) for two hours at room temperature. After three washes with wash buffer, TAs and controls Lenzilumab and Elotuzumab were diluted to 100 nM in PBS containing 1% BSA and 0.05% Tween-20 (assay buffer). The diluted material was added to the DNA/insulin coated plate at 75 ul/well for 1 hour at room temperature. After three washes with wash buffer, a donkey anti-human FcY HRP conjugated polyclonal antibody, diluted to 1:5000 in assay buffer, was added to the plate at 75 ul/well for 1 hr at room temperature. After three washes with wash buffer and three washes with wash buffer (with no tween-20), the assay was developed with TMB, and stopped with 1N HCL. OD 450 nm was measured. The experiment included appropriate controls for non-specific binding of test articles to the plate/block in the absence of DNA or insulin.

[3] = target: T3, cyno MAdCAM (cynomolgus); assay: BLI (Octet), binder on anti-human Fc tips
T3 construct: also called cynomolgus MAdCAM

[4] = target: T2, mouse MAdCAM; assay: BLI (Octet), binder on anti-human Fc tips

Insulin, sequence (P01308 25-54, chain 1 of 2): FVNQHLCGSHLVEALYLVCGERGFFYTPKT
Insulin, sequence (P01308 90-110, chain 2 of 2): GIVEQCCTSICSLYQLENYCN

Row | Binder | Kd [1] [nM] | koff [1] [s⁻¹] | Insulin polyreactivity score [2] | binding result [1] | kon [1] [M⁻¹ s⁻¹] | Kd [3] [nM] | Kd [4] [nM]
1 | B1 | 20 | 0.0113 | 13.2 | – | – | – | –
2 | B2 | – | – | 75.4 | no binding (tested: 150 nM) | – | – | –
3 | B3 | 203 | 0.082 | 67.3 | – | 404000 | – | –
4 | B4 | 22.2 | 0.00897 | 4.58 | – | 405000 | – | –
5 | B5 | 43.8 | 0.0197 | 2.61 | – | 449000 | – | –
6 | B6 | – | – | 3.81 | no binding (tested: 200 nM) | – | – | –
7 | B7 | 2690 | 0.314 | 3.63 | – | 117000 | – | –
8 | B8 | 68.8 | 0.0259 | 3.53 | – | 376000 | – | –
9 | B9 | 20.2 | – | – | – | – | 142 | 75.1
10 | B10 | 49.1 | – | – | – | – | 78.5 | 9.9
11 | B11 | 50.4 | – | – | – | – | 92 | 117
12 | B12 | 56.3 | – | – | – | – | 117 | 42.2
13 | B13 | 74.3 | – | – | – | – | 89.5 | 7.6
14 | B14 | 83.5 | – | – | – | – | 73.7 | 24
